Literature values as cited in publication PMC7465696.
pKd: −log10 of the molar value.

Target: HP1β CSD (Homo sapiens) (UniProt P83916)
Assay: sedimentation analysis

Substance: HP1β CSD (from UniProt P83916)
- pKd: > 6.82
